In the RNAGym collection of RNA variant scans (doi:10.7554/elife.80360):

B1: HDV Ribozyme (parent)
chain: GGCCGGCAUGGUCCCAGCCUCCUCGCUGGCGCCGGCUGGGCAACAUUCCGAGGGGACCGUCCCCUCGGUAAUGGCGAAUGGGACCCA

Variants of: B1
Assay: self-cleavage, relative activity (ratio to wild type); higher = more cleavage; co-transcriptional

| Variant | self-cleavage |
| --- | --- |
| GGCCGGCAUGGUCCCAGCCUCCUCGCUGGCGCCGGCUGGGCAACAUUCCGAGAGGACCGUCCCCCCGGUAAUGGCGAAUGGGACCCA [G53A U65C] | 0.815 |
| GGCCGGCAUGGUCCCAGCCUCCUCGCAGGCGCCGGCUGGGCAACAUUCCGUGGGGACCGUCCCCUCGGUAAUGGCGAAUGGGACCCA [U27A A51U] | 0.739 |
| GGCCGGUAUGGUCGCAGCCUCCUCGCUGGCGCCGGCUGGGCAACAUUCCGAGGGGACCGUCCCCUCGGUAAUGGCGAAUGGGACCCA [C7U C14G] | 0.308 |
| GGCCGGCAUGGUCCCAGCCUCCUCGCUGGCGCCGGCUGGGCAACAUUCCGAAGGGACCGUCCCCUCGGUAAGGGCGAAUGGGACCCA [G52A U72G] | 0.749 |
| GGCCGGCAUGGUCCCAGCCUCCUCGCCGUCGCCGGCUGGGCAACAUUCCGAGGGGACCGUCCCCUCGGUAAUGGCGAAUGGGACCCA [U27C G29U] | 0.145 |
| GUCCGGCAUGGUCCCAGCCUCCUCGCUGGUGCCGGCUGGGCAACAUUCCGAGGGGACCGUCCCCUCGGUAAUGGCGAAUGGGACCCA [G2U C30U] | 0.025 |
| GGCCGGCACGGUCCCAGCCUCGUCGCUGGCGCCGGCUGGGCAACAUUCCGAGGGGACCGUCCCCUCGGUAAUGGCGAAUGGGACCCA [U9C C22G] | 0 |
| AGCCGCCAUGGUCCCAGCCUCCUCGCUGGCGCCGGCUGGGCAACAUUCCGAGGGGACCGUCCCCUCGGUAAUGGCGAAUGGGACCCA [G1A G6C] | 0.151 |
| GGCCGGCAUGGUCCCAGCCUCCUCGCUGGCGCCGGCAGGGCAACAGUCCGAGGGGACCGUCCCCUCGGUAAUGGCGAAUGGGACCCA [U37A U46G] | 0.128 |
| GGCCGGCAUGGUCCCAGCCUCCUCGCUGGCACCGGCUGGGCAACAUUCCGAGGGGACCGUCCCCACGGUAAUGGCGAAUGGGACCCA [G31A U65A] | 0.366 |
| GGCCGGCCUGGUCCCAGCCUCCUCGCUAGCGCCGGCUGGGCAACAUUCCGAGGGGACCGUCCCCUCGGUAAUGGCGAAUGGGACCCA [A8C G28A] | 0.252 |
| GGCCGGCAUGGUCACAGCCUCCUCGCUGGCGCCGGCUGGGCAACAUUCCGAGGGGACUGUCCCCUCGGUAAUGGCGAAUGGGACCCA [C14A C58U] | 0.705 |
| GGCCGGCAUGGUCCCAGCCUCCUCGCUGGCGCCGGCUGGGCACCAUUCCGAGGGGACCGUCCCCUCGGUAAUGGCGAAUGGGCCCCA [A43C A83C] | 0.332 |
| GGCCGGCAUUGUCCCAGCCUCCUCGCUGGUGCCGGCUGGGCAACAUUCCGAGGGGACCGUCCCCUCGGUAAUGGCGAAUGGGACCCA [G10U C30U] | 0.137 |
| GGCCGGCAUGGUCCCAGCCUCCGCGCUGGCGCGGGCUGGGCAACAUUCCGAGGGGACCGUCCCCUCGGUAAUGGCGAAUGGGACCCA [U23G C33G] | 0.161 |
| GGCCGGCACGGUCCCAGCCUCCUCGCUGGCGCCGGCUGGGCAACAUUCCGAGGGGACCGUCCCCUCGGUAAUGGUGAAUGGGACCCA [U9C C75U] | 0.138 |
| GGCCGGCAUGGUCCCAGCCUCCUCGCUGGCGCCGGCUGGACAACAUUCCGAGGGGACCGUCCACUCGGUAAUGGCGAAUGGGACCCA [G40A C63A] | 0.856 |
| GGCCGGCAUGGUCCCAGCCUCCUCGCUGCCGCCGGCUGGGCAACAUUCCGAGAGGACCGUCCCCUCGGUAAUGGCGAAUGGGACCCA [G29C G53A] | 0.133 |
| GGCCGGCAUGGUCACAGCCUCCUCGCUGGCGCCGGCUGGGCAAGAUUCCGAGGGGACCGUCCCCUCGGUAAUGGCGAAUGGGACCCA [C14A C44G] | 0.346 |
| GGCCGGCAUGGUCCCAGCCUCCUCGCUGGCGCCGGCUGGGCAACAUUCCGAGAGGACCGUUCCCUCGGUAAUGGCGAAUGGGACCCA [G53A C61U] | 0.99 |
| GGCUGGCAUGGUCCCAGCCUCCUCGCUGGCGCCGGCUGGGCAACAUUCCGAGGGCACCGUCCCCUCGGUAAUGGCGAAUGGGACCCA [C4U G55C] | 0.656 |
| GGCCGGCAUGGUCCCAGCCGCCUUGCUGGCGCCGGCUGGGCAACAUUCCGAGGGGACCGUCCCCUCGGUAAUGGCGAAUGGGACCCA [U20G C24U] | 0 |

| Variant | self-cleavage |
| --- | --- |
| GGCCGGCAUGGUCCCAGCCUCCUCGCUGGCGCCGGCUGUGCAACAUUCCGAGGGGACCGGCCCCUCGGUAAUGGCGAAUGGGACCCA [G39U U60G] | 0.502 |
| GGCCGGCAUGCUCCCAGCCUCCUCGCUGGCGCCGGCUGGGCAACAUUCCGAGGGGAGCGUCCCCUCGGUAAUGGCGAAUGGGACCCA [G11C C57G] | 0.249 |
| GGCCGGCAUGGUCUCAGCCUCCUCGCUGGCGCCGGCUGGGCAACAUUCCGAGGGGACCGGCCCCUCGGUAAUGGCGAAUGGGACCCA [C14U U60G] | 0.772 |
| GGCCGGCAUGGUCCCAGCCCCCUCGCUGGCGCCGGCUGGGUAACAUUCCGAGGGGACCGUCCCCUCGGUAAUGGCGAAUGGGACCCA [U20C C41U] | 0.0449 |
| GGCCGGCAUGGUCCCAGCCUCCUCGCUGGCGGCGGCUGGGCAACAUUCCGAGGGGACCGUCCCCUCGGUAAUGGCGACUGGGACCCA [C32G A78C] | 0.0665 |
| GGCCGGCAUGGUCCCAGCCCCCUCGCUGGCGCCGGCUGGGCAACAUUCGGAGGGGACCGUCCCCUCGGUAAUGGCGAAUGGGACCCA [U20C C49G] | 0.0852 |
| GGCCGGCAUGGUCCGAGCCUCCUCGCUGGCGCCGGCUGGGCAACAUUCCGAGGGGACCGUCCCCUCGUUAAUGGCGAAUGGGACCCA [C15G G68U] | 0.369 |
| GGCCGGCAUGGUCCCAGCCUCCUCGCUGGCGCCGGCUGGGCAACAUUCGGAGGGGACCGUCCCCUCGGUAAUGGCGAAUCGGACCCA [C49G G80C] | 0.178 |
| GGCCGGCAUGGUCCCAGCCUCCUCGCUGGCGCCGGCUGGGCAACAUUCCGAGGGGACCGUCCCCUCGGUACUGGCGAAUGGGACCCA [A71C] | 0.84 |
| GCCCGGCAUGGUCCCAGCCUCCUCGCUGGCGUCGGCUGGGCAACAUUCCGAGGGGACCGUCCCCUCGGUAAUGGCGAAUGGGACCCA [G2C C32U] | 0.101 |
| GGCCGGCAUGGUCCCAGCCUCCUCGCUGGCGCCGGCUGGUCAACAUUCCGCGGGGACCGUCCCCUCGGUAAUGGCGAAUGGGACCCA [G40U A51C] | 0.627 |
| GGCCGGCAUGGUCCCAGCCUCCUCGCUGGCGCCGGCUGGGCAACAUUCCGAGGGGACCAUCCCCUCGGUUAUGGCGAAUGGGACCCA [G59A A70U] | 0.941 |
| GGCCGGCAUGGUCCCAGCAUCCACGCUGGCGCCGGCUGGGCAACAUUCCGAGGGGACCGUCCCCUCGGUAAUGGCGAAUGGGACCCA [C19A U23A] | 0.0302 |
| GGCCGGCAUGGUCCCAGCCUACUCGCUGUCGCCGGCUGGGCAACAUUCCGAGGGGACCGUCCCCUCGGUAAUGGCGAAUGGGACCCA [C21A G29U] | 0 |
| GGCCGGCAUGGUCCCAGCCUCCUCGCUGGCGCCGGCGGGGCAACAUUCCGAGGGGACCGUCCCCUCGGUAAUGGCGAAUCGGACCCA [U37G G80C] | 0.0449 |
| GGCCGGCAUGGUCCCAGCCUCCUCGCUGGCGCCGGCUGGGCAACAUUCCGAGGGGACCGUGCCCUCGGUAAUGGCGACUGGGACCCA [C61G A78C] | 0.177 |
| GGCCGGCGUGGUCCCAGCCUCCUCGCUGGCGCCGGCUGGUCAACAUUCCGAGGGGACCGUCCCCUCGGUAAUGGCGAAUGGGACCCA [A8G G40U] | 0.554 |
| GGCCGGCAUGGUCCCAGCCUCCUCGCUGCCGCCGGCUGGGCAACAUUCCGAGGGGACCGUCCCCUCGCUAAUGGCGAAUGGGACCCA [G29C G68C] | 0.0449 |
| GGCCGGCAUGGUCCCAGCCUCCUCGCUGGCGCCGGCUGGGCAACAUUCCGAGGGGACCGUCACCUCAGUAAUGGCGAAUGGGACCCA [C62A G67A] | 0.578 |
| GGCCGGCAUGGUCCCAGCCUCCUCGCUGGCGCCGGCUGGGCAACAUUCCGAGGCGACCGUCCCCUAGGUAAUGGCGAAUGGGACCCA [G54C C66A] | 0.814 |
| GGCCGGUAUGGUCCCAGCCUCCUCGCUGGCGCCGGCUGGGCAACAUUCCGAGGGGACCGUCCCCUCGGUAAUGGCGAAUGGGACCAA [C7U C86A] | 0.872 |
| GGCGGGCACGGUCCCAGCCUCCUCGCUGGCGCCGGCUGGGCAACAUUCCGAGGGGACCGUCCCCUCGGUAAUGGCGAAUGGGACCCA [C4G U9C] | 0.19 |

| Variant | self-cleavage |
| --- | --- |
| GGCCGGCAUGGUACCAGCCUCCUCGCUGGCGCCGGCUGGGCAACAUUCCGAGGGGACCGUCCCCUCGGUAAUGGAGAAUGGGACCCA [C13A C75A] | 0.0573 |
| GGCCGGCAGGGUCCCAGCCUCCUCGCUGGCGCCGGCUGGGCAACAUUCCGAGGGGACCGUCCCCUCGGUAAUGGUGAAUGGGACCCA [U9G C75U] | 0.222 |
| GGCCGGCAUGGUCCCAGCCUCCUCGGUGGCGCCGGCUGGGCAACAUUCUGAGGGGACCGUCCCCUCGGUAAUGGCGAAUGGGACCCA [C26G C49U] | 0.935 |
| GGCCGGCAUGGUCCCAGCCUCCUCGCUGGCGCCGGCUGGGCAACAUUCCGAGGGGACCGUCCCCUGUGUAAUGGCGAAUGGGACCCA [C66G G67U] | 0.831 |
| GGCCGGCAUGGUCUCAGCCUCCUCGCUGGCGCCGGCUGGGCAACAUUCCGACGGGACCGUCCCCUCGGUAAUGGCGAAUGGGACCCA [C14U G52C] | 1.1 |
| GGCCGGCAUGGUCCCAGCCUCCUCGCUGGCGCCGGCUGGGCAACAUUCCGAGGGGACUGUCCCCUCGGUAAUGGCGAAUGGGACGCA [C58U C85G] | 1.07 |
| GGCCGGCAUGGUCCCAGCCUCCUCGCUGGCGCCGGCUGGGCAAGAUUCAGAGGGGACCGUCCCCUCGGUAAUGGCGAAUGGGACCCA [C44G C49A] | 0.665 |
| GGCCGGCAUGGUCCCAGCCUCCUCGCUGGCACCGGAUGGGCAACAUUCCGAGGGGACCGUCCCCUCGGUAAUGGCGAAUGGGACCCA [G31A C36A] | 0.117 |
| GGCCGGCAUGGUCCCAGCCUCCUCGCUAGCCCCGGCUGGGCAACAUUCCGAGGGGACCGUCCCCUCGGUAAUGGCGAAUGGGACCCA [G28A G31C] | 0 |
| GGCCGGCAUGGUCCCAGCCUCCUCGCUGGCCCCGGCUCGGCAACAUUCCGAGGGGACCGUCCCCUCGGUAAUGGCGAAUGGGACCCA [G31C G38C] | 0.135 |
| GGCCGGCAUGGUCCCAGCCUCCUCGCUGGCGCCGGCUUGGCAACAUUCCGAGGAGACCGUCCCCUCGGUAAUGGCGAAUGGGACCCA [G38U G54A] | 0.227 |
| GGCCGGCAUGGUCCCAGCAUCCUCGCUGGCGCCGGCUGGGCAACAUUCCGAGGGGACCGUACCCUCGGUAAUGGCGAAUGGGACCCA [C19A C61A] | 0.12 |
| GGCCGGCAUGGUCCCAGCCUCCUCGCUGGCGCCGGCUGGGCAACAUUCCGAGGGGACCGUUCCCUCGGUAAUGGCGAAUGGGACCUA [C61U C86U] | 1.03 |
| GGCCGGCAUGGUCCCAGCCUCCUCGCUGGCGCCGGCUGGGCAACAGUCCGAGGGGACCGUCCCCUCGUUAAUGGCGAAUGGGACCCA [U46G G68U] | 0.554 |
| AGCCGGCAUGGUCCCAGCCUCCUCGCUGGCGCCGGCUGGGCAACAUUCCGAGGGCACCGUCCCCUCGGUAAUGGCGAAUGGGACCCA [G1A G55C] | 0.115 |
| GGCCGGCAUGGUCCCAGCUUCCUCGCUGGCGCCGGCUGGGCAACAUUCCGGGGGGACCGUCCCCUCGGUAAUGGCGAAUGGGACCCA [C19U A51G] | 0.194 |
| GGCCGGCAUGGUCCCAGCCUCCUCGAUGGCGCCGGCUGGCCAACAUUCCGAGGGGACCGUCCCCUCGGUAAUGGCGAAUGGGACCCA [C26A G40C] | 0.601 |
| GGCCGGCAUGGUCCCAGCCUCCUCGCUGGCGCCGGCUGGGCAACAUUCCGAGGUGACCGUCCCCUCGGUAAUGGCCAAUGGGACCCA [G54U G76C] | 0.73 |
| GGCCGGCAUGGUCCCAGCCUCCUCGCUGGCGCCGGCUGGGCAACAUUCCGUGGGGACCGUCCCCUCGGGAAUGGCGAAUGGGACCCA [A51U U69G] | 0.98 |
| GGCCGGCACGGUCCCAGCCUCCUCGCUGGCGCCGGCUGGGCAACAUUCCGAGGGGACCGUCCCCUCGGUAAUGGCGAAUGGGAUCCA [U9C C84U] | 0.415 |
